According to the supplement of paper PMC9112550, “Optimization of the antimicrobial peptide Bac7 by deep mutational scanning” (BMC Biology, 2022):

Test system: Escherichia coli TOP10
Test: shrunken log2 fold change of peptide-encoding DNA abundance (4.5 h post-induction vs induction); higher = less antimicrobial activity (less host growth inhibition)
Conditions: time post-induction: 4.5 h; library: site-saturation at positions 5, 18, 19, 20
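Also: peptides expressed intracellularly from a pBAD plasmid library in pooled LB shake-flask culture, induced with 0.3% L-arabinose, DNA abundance read by NGS, three biological replicates, DESeq2 with apeglm shrinkage.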

Sequence	shrunken log2 fold change
RRIRDRPPRLPRPRPRPSQEPRP	0.111
RRIRDRPPRLPRPRPRPSRAPRP	0.156
RRIRDRPPRLPRPRPRPSRCPRP	0.346
RRIRDRPPRLPRPRPRPSSMPRP	-0.292
RRIRDRPPRLPRPRPRPSSVPRP	-0.0994
RRIRDRPPRLPRPRPRPSTDPRP	0.0145
RRIRDRPPRLPRPRPRPSVEPRP	1.45
RRIRDRPPRLPRPRPRPSVSPRP	0.0104
RRIRDRPPRLPRPRPRPSYMPRP	-0.111
RRIRDRPPRLPRPRPRPTAGPRP	0.534
RRIRDRPPRLPRPRPRPTASPRP	0.381
RRIRDRPPRLPRPRPRPTCEPRP	0.705
RRIRDRPPRLPRPRPRPTCIPRP	0.0607
RRIRDRPPRLPRPRPRPTCKPRP	0.0657
RRIRDRPPRLPRPRPRPTEFPRP	-0.0306
RRIRDRPPRLPRPRPRPTGFPRP	0.0286
RRIRDRPPRLPRPRPRPTHWPRP	0.192
RRIRDRPPRLPRPRPRPTICPRP	-0.232
RRIRDRPPRLPRPRPRPTLEPRP	1.06
RRIRDRPPRLPRPRPRPTMRPRP	1.3
RRIRDRPPRLPRPRPRPTPMPRP	0.234
RRIRDRPPRLPRPRPRPTPNPRP	0.272

Sequence	shrunken log2 fold change
RRIRDRPPRLPRPRPRPTPVPRP	0.405
RRIRDRPPRLPRPRPRPTQCPRP	-0.0857
RRIRDRPPRLPRPRPRPTRRPRP	0.206
RRIRDRPPRLPRPRPRPTRTPRP	0.246
RRIRDRPPRLPRPRPRPTSWPRP	0.989
RRIRDRPPRLPRPRPRPTTQPRP	0.831
RRIRDRPPRLPRPRPRPTTTPRP	0.654
RRIRDRPPRLPRPRPRPTVCPRP	0.662
RRIRDRPPRLPRPRPRPTWPPRP	0.501
RRIRDRPPRLPRPRPRPTYAPRP	0.0176
RRIRDRPPRLPRPRPRPVAMPRP	0.633
RRIRDRPPRLPRPRPRPVAYPRP	-0.0825
RRIRDRPPRLPRPRPRPVEGPRP	0.211
RRIRDRPPRLPRPRPRPVFGPRP	0.342
RRIRDRPPRLPRPRPRPVFQPRP	-0.134
RRIRDRPPRLPRPRPRPVHDPRP	0.19
RRIRDRPPRLPRPRPRPVHFPRP	0.033
RRIRDRPPRLPRPRPRPVHLPRP	-0.23
RRIRDRPPRLPRPRPRPVIVPRP	0.0947
RRIRDRPPRLPRPRPRPVKIPRP	-0.101
RRIRDRPPRLPRPRPRPVLRPRP	-0.0147
RRIRDRPPRLPRPRPRPVNEPRP	0.0314

Sequence	shrunken log2 fold change
RRIRDRPPRLPRPRPRPVNPPRP	0.342
RRIRDRPPRLPRPRPRPVNWPRP	0.188
RRIRDRPPRLPRPRPRPVPFPRP	2.99
RRIRDRPPRLPRPRPRPVPPPRP	0.453
RRIRDRPPRLPRPRPRPVRVPRP	0.908
RRIRDRPPRLPRPRPRPVSHPRP	0.00713
RRIRDRPPRLPRPRPRPVTRPRP	0.348
RRIRDRPPRLPRPRPRPVYCPRP	-0.115
RRIRDRPPRLPRPRPRPVYMPRP	-0.506
RRIRDRPPRLPRPRPRPVYYPRP	-0.707
RRIRDRPPRLPRPRPRPWAAPRP	0.00948
RRIRDRPPRLPRPRPRPWALPRP	-0.000578
RRIRDRPPRLPRPRPRPWCCPRP	0.0175
RRIRDRPPRLPRPRPRPWCWPRP	0.036
RRIRDRPPRLPRPRPRPWDYPRP	-0.00965
RRIRDRPPRLPRPRPRPWFHPRP	-0.00884
RRIRDRPPRLPRPRPRPWHMPRP	-0.301
RRIRDRPPRLPRPRPRPWHRPRP	-0.017
RRIRDRPPRLPRPRPRPWKMPRP	0.0664
RRIRDRPPRLPRPRPRPWLCPRP	-0.0939
RRIRDRPPRLPRPRPRPWMKPRP	-0.0188
RRIRDRPPRLPRPRPRPWNCPRP	-0.3

Sequence	shrunken log2 fold change
RRIRDRPPRLPRPRPRPWNKPRP	-0.117
RRIRDRPPRLPRPRPRPWNMPRP	-0.508
RRIRDRPPRLPRPRPRPWQAPRP	-0.0194
RRIRDRPPRLPRPRPRPWRCPRP	0.26
RRIRDRPPRLPRPRPRPWRVPRP	0.28
RRIRDRPPRLPRPRPRPWSYPRP	-1.29
RRIRDRPPRLPRPRPRPWVNPRP	0.0215
RRIRDRPPRLPRPRPRPWYGPRP	-0.87
RRIRDRPPRLPRPRPRPWYNPRP	-0.102
RRIRDRPPRLPRPRPRPYDYPRP	-0.097
RRIRDRPPRLPRPRPRPYEHPRP	0.077
RRIRDRPPRLPRPRPRPYEYPRP	-0.17
RRIRDRPPRLPRPRPRPYFKPRP	-0.381
RRIRDRPPRLPRPRPRPYFWPRP	-0.0487
RRIRDRPPRLPRPRPRPYFYPRP	-0.793
RRIRDRPPRLPRPRPRPYGDPRP	-0.0996
RRIRDRPPRLPRPRPRPYGRPRP	-0.0901
RRIRDRPPRLPRPRPRPYKHPRP	-1.13
RRIRDRPPRLPRPRPRPYLEPRP	-0.0399
RRIRDRPPRLPRPRPRPYLPPRP	0.00286
RRIRDRPPRLPRPRPRPYLSPRP	-0.102
RRIRDRPPRLPRPRPRPYMIPRP	-0.587

Sequence	shrunken log2 fold change
RRIRDRPPRLPRPRPRPYNYPRP	-0.27
RRIRDRPPRLPRPRPRPYQDPRP	-0.00141
RRIRDRPPRLPRPRPRPYRLPRP	-0.0389
RRIRDRPPRLPRPRPRPYRYPRP	-0.0188
RRIRERPPRLPRPRPRPAAEPRP	0.0581
RRIRERPPRLPRPRPRPACSPRP	0.115
RRIRERPPRLPRPRPRPACYPRP	-0.308
RRIRERPPRLPRPRPRPADLPRP	-0.175
RRIRERPPRLPRPRPRPADNPRP	-0.03
RRIRERPPRLPRPRPRPADSPRP	-0.157
RRIRERPPRLPRPRPRPAECPRP	-0.0953
RRIRERPPRLPRPRPRPAEMPRP	-0.0352
RRIRERPPRLPRPRPRPAEVPRP	-0.0184
RRIRERPPRLPRPRPRPAFAPRP	0.206
RRIRERPPRLPRPRPRPAFRPRP	-0.0607
RRIRERPPRLPRPRPRPAFSPRP	0.122
RRIRERPPRLPRPRPRPAGSPRP	-0.202
RRIRERPPRLPRPRPRPAINPRP	-0.257
RRIRERPPRLPRPRPRPAITPRP	-0.401
RRIRERPPRLPRPRPRPAIWPRP	0.129
RRIRERPPRLPRPRPRPAKCPRP	-0.237
